In article PMC6743029 one finds expression_or_secretion data, which are given here for one protein.

This data set is described as follows: Western blot, Huh7.5.1 lysates, 16 h. As to conditions: glycan lost; control: untreated. Background: A western blot detects proteins with antibodies after separation by electrophoresis.

B1: SR-BI (scavenger receptor class B, type I): tunicamycin (protein)
parent chain: MGCSAKARWAAGALGVAGLLCAVLGAVMIVMVPSLIKQQVLKNVRIDPSSLSFNMWKEIPIPFYLSVYFFDVMNPSEILKGEKPQVRERGPYVYREFRHKSNITFNNNDTVSFLEYRTFQFQPSKSHGSESDYIVMPNILVLGAAVMMENKPMTLKLIMTLAFTTLGERAFMNRTVGEIMWGYKDPLVNLINKYFPGMFPFKDKFGLFAELNNSDSGLFTVFTGVQNISRIHLVDKWNGLSKVDFWHSDQCNMINGTSGQMWPPFMTPESSLEFYSPEACRSMKLMYKESGVFEGIPTYRFVAPKTLFANGSIYPPNEGFCPCLESGIQNVSTCRFSAPLFLSHPHFLNADPVLAEAVTGLHPNQEAHSLFLDIHPVTGIPMNCSVKLQLSLYMKSVAGIGQTGKIEPVVLPLLWFAESGAMEGETLHTFYTQLVLMPKVMHYAQYVLLALGCVLLLVPVICQIRSQVGAGQRAARADSHSLACWGKGASDRTLWPTAAWSPPPAAVLRLCRSGSGHCWGLRSTLASFACRVATTLPVLEGLGPSLGGGTGS
On to B1, for which the expression_or_secretion result is listed as “decreases”.
